Earlier results, collected in PMC6589385.

Target: His37 (UniProt position 37, IIGILHLILWI)
Test: NMR
Details: Membrane-bound wild-type AM2 tetrameric channel

## Influenza A virus M2 protein (AM2) transmembrane domain, wild type (Influenza A virus)
  pKa: 5.9
